Measurements published in PMC5838249, “The Apicomplexa-specific glucosamine-6-phosphate N-acetyltransferase gene family encodes a key enzyme for glycoconjugate synthesis with potential as therapeutic target” (Scientific Reports, 2018).

Substrate: CC(=O)SCCNC(=O)CCNC(=O)[C@H](O)C(C)(C)COP(=O)(O)OP(=O)(O)OC[C@H]1O[C@@H](n2cnc3c(N)ncnc32)[C@H](O)[C@@H]1OP(=O)(O)O
Experiment: GNA1 kinetic assay, Michaelis-Menten
Format: biochemical, Cryptosporidium parvum
Details: co-substrate GlcN-6P

B1: CpGNA1 (Cryptosporidium parvum Iowa II) (protein)
chain: MISSFEVRKATIDDYFELRNLICDVTRCTETLSREQAEERFRYNTYHPYCLVDTENGRIVGYAGFYIIPHLGRKNDSRIEHVIISKEYRNRGLGRLLCKQIIEDAKNKFNCGRIDLTVESHIAKKLYSSLEFEKVNTEVMRNSFLDLTPKSD
Km: 241.7 ± 35.3 µM
